From PMC6444592, “Citrullination of HP1γ chromodomain affects association with chromatin” (Epigenetics & Chromatin, 2019)

Tests used:
[1] = biological target: T1, GST-HP1γR38/9K (full-length mouse HP1γ with R38 and R39 mutated to lysine) (mouse, UniProt P23198 1-183, R38/9K | R38/9K); experiment: pull-down; H3K9me3 or unmethylated H3(1–16) peptides linked to Dynabeads MyOne streptavidin T1; eluted GST-HP1 in HBS-EP (300 mM NaCl, 10 mM HEPES KOH pH 7.4, 5 mM EDTA, 0.2% NP-40); SDS-PAGE, Coomassie-blue staining; settings: both partners purified
T1 construct: heterochromatin protein 1 gamma (HP1γ), mouse, full length, R38K and R39K (retains the positive charge); source: E. coli, expressed as GST fusion protein (pGEX-2T), purified

[2] = biological target: T2, GST-HP1γR38/9A (full-length mouse HP1γ with alanine substitutions at amino acids 38 and 39) (mouse, UniProt P23198 1-183, R38/9A | R38/9A); experiment: as above; settings: both partners purified
T2 construct: heterochromatin protein 1 gamma (HP1γ), mouse, full length, R38A and R39A (designed to mimic citrullination); also called double alanine mutant; source: E. coli, expressed as GST fusion protein (pGEX-2T), purified
T2 sequence (P23198 other isoform, or with tags, fused parts or gaps R38/9A | R38/9A | R38/9A | R38/9A): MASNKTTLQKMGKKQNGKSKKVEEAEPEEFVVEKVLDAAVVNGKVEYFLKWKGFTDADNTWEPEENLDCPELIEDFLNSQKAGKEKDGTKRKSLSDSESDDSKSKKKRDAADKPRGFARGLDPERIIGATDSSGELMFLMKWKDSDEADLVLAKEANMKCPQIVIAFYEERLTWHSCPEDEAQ

T1 sequence (P23198 other isoform, or with tags, fused parts or gaps R38/9K | R38/9K | R38/9K | R38/9K): as the sequence (P23198 other isoform, or with tags, fused parts or gaps R38/9A | R38/9A | R38/9A | R38/9A) above, with A38K, A39K counted along it

B1: H3K9me3(1–16) peptide (peptide)
peptide: ARTKQTARKSTGGKAP
modifications: trimethyl-lysine at K9 (K(me3)); biotin at the C-terminus
notes: histone H3, residues 1-16; also called methylated H3K9me3(1–16) peptides; H3K9me3 peptides
- binding result [1]: binds
- binding result [2]: binds
